The text below walks through data of the supplement of paper PMC12042874.

± gives the uncertainty stated by the source.

The nature of the data set: amyloid nucleation score (Sup35N fusion, yeast selection) (log enrichment); library NNK3; higher = more nucleation; inactive = no reads after selection. In a few lines:
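Nucleation score is defined as the DiMSum log enrichment of output over input reads, with centring on the mode score of non-aggregating sequences. A minimum of 100 input reads was required for each sequence. Reads came from Illumina sequencing of plasmid inserts from psi-negative yeast expressing Sup35N fused to peptides of 20 random codons, induced with 100 μM copper sulfate for 24 hours and grown 7 days at 30°C on medium lacking adenine and uracil.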
Turning to LVSVGSIVTSLEFNTGCLWA, the amyloid nucleation score entry was “inactive”.

Take LVVGISRPMSTGSMASWQWR: the amyloid nucleation score result was “inactive”.

With LVVIDTIIHCLFKTAQCAWF, the amyloid nucleation score entry is “inactive”.

On to LVVKFSLDKWPRQNVSSLAS, for which the amyloid nucleation score entry was “inactive”.

With LVVNRDYFCRSVGPIVLLEP, the amyloid nucleation score entry was “inactive”.

LVWSSSEVVFFA: the amyloid nucleation score entry was “inactive”.

With LVWYKSDLISIVRHTVDSCC, the amyloid nucleation score entry is “inactive”.

Turning to LVYRMMGSWVGPIRVYFNML, the amyloid nucleation score entry was “inactive”.

Take LVYSDCHRIISHWFFRYTWQ: the amyloid nucleation score result was “inactive”.

Turning to LWHVF, the amyloid nucleation score entry is “inactive”.

Take LWIIKGYKSYSNHQWNWGM: the amyloid nucleation score entry was “inactive”.

On to LWINCSWMFNWM, for which the amyloid nucleation score was determined as 2.43 ± 0.07.

As to LWLVIN, the amyloid nucleation score result was “inactive”.

In the case of LWMCLLMRRR, the amyloid nucleation score result is “inactive”.

Turning to LWTYIWDRFEDPVECLRWWN, the amyloid nucleation score result is “inactive”.

In the case of LWVSLFVSDVTRLFCLGFVT, the amyloid nucleation score result was “inactive”.

On to LWVTM, for which the amyloid nucleation score came out at 1.37 ± 0.14.

Take LWYHWHNA: the amyloid nucleation score entry was “inactive”.

As to LWYSCLVSRSSIVSHGWVGL, the amyloid nucleation score entry is “inactive”.

Consider LWYYCTQEVIARRDEKA, for which the amyloid nucleation score result is “inactive”.

Consider LYAFRDSCDTFSC, for which the amyloid nucleation score entry is “inactive”.

Regarding LYCCTGEHGSLASVCSSTLT, the amyloid nucleation score was -0.852 ± 1.5.

As for LYELGQKFLVGHWQRGLKP, the amyloid nucleation score entry is “inactive”.

In turn, LYGLVWYTQVGLLNVYSKIY registered an amyloid nucleation score of 1.24 ± 0.18.

In the case of LYLAMRENMWFEPEVNGCYG, the amyloid nucleation score entry was “inactive”.

On to LYLGLFVSWCSLKSTAWFGK, for which the amyloid nucleation score result is “inactive”.

Consider LYLRQKYLRALTNFNFPRAT, for which the amyloid nucleation score result is “inactive”.

Take LYLRV: the amyloid nucleation score result was “inactive”.

For LYLSLFGQVPYSS, the amyloid nucleation score is -0.473 ± 0.98.

Take LYLTSCDIYGAGTIGRWVAV: the amyloid nucleation score result was “inactive”.

For LYMFHCAFILSIFMFHTPVH, the amyloid nucleation score entry was “inactive”.

Regarding LYMSWAKTLFGECNCSHVLL, the amyloid nucleation score entry is “inactive”.

Turning to LYNRKHFTSM, the amyloid nucleation score was -0.638 ± 0.96.

LYQRYMDMTSYCS: the amyloid nucleation score result was “inactive”.

Consider LYRVLSYDLRLDKWCYKTLW, for which the amyloid nucleation score result is “inactive”.

LYSECNDPNKA: the amyloid nucleation score result was “inactive”.

As to LYSFSANNDMVHMYRNQVRF, the amyloid nucleation score result is “inactive”.

Regarding LYTAATLGSTRLAYCKKEWG, the amyloid nucleation score result is “inactive”.

On to LYTDVEYRVWCVTFLVRPSK, for which the amyloid nucleation score result is “inactive”.

For LYVFCLAILPLDVLRFSLML, the amyloid nucleation score result was “inactive”.

For the substance LYVFRCHLVVNDLNATNCSR, the amyloid nucleation score result is “inactive”.

Turning to LYVYTMR, the amyloid nucleation score result was “inactive”.

Take LYWMVSMTTDR: the amyloid nucleation score result was “inactive”.

Take LYWRSTGVSVWVRWVLYG: the amyloid nucleation score entry is “inactive”.

Consider MALEVFF, for which the amyloid nucleation score result was “inactive”.

Consider MALWASSKAEVIVVIKCLGD, for which the amyloid nucleation score entry was “inactive”.

Consider MAMLS, for which the amyloid nucleation score entry is “inactive”.

In the case of MAQIRATIFMMMSANVDRYM, the amyloid nucleation score result is “inactive”.

In the case of MAVLHSLFVKVQLMTSNFS, the amyloid nucleation score result was “inactive”.

As to MCDKV, the amyloid nucleation score result is “inactive”.

Substance MCMSAFEGSSIICDCMVVLL returned an amyloid nucleation score of 1.85 ± 0.088.

Take MCMYVKMYLNGSLFVYMTSK: the amyloid nucleation score entry was “inactive”.

In turn, MCQAIDSNTYWYLAHCGNSS showed an amyloid nucleation score of 0.494 ± 0.25.

For MCSAEA, the amyloid nucleation score entry is “inactive”.

The substance MCTNYYITCRSKSCVICRRI gave an amyloid nucleation score of 2.31 ± 0.059.

MDEVWFPSKGCDLAVRNCLM: the amyloid nucleation score entry is “inactive”.

For MDKYTRTRPQTRGRAVSCYY, the amyloid nucleation score entry was “inactive”.

For MDLMPSYSTWKLFFKAI, the amyloid nucleation score entry is “inactive”.

On to MDQMPKKYLVLAAAAVVRMV, for which the amyloid nucleation score entry is “inactive”.

Substance MDVVLRINLKQGRYPGTNAH had an amyloid nucleation score of 2.1 ± 0.091.

Take MELSGSIMRIEMLYFFMRHK: the amyloid nucleation score result was “inactive”.

MEVDQTYVRIWC came in with an amyloid nucleation score of 1.31 ± 0.14.

Consider MFFQLVCYFNLSTVMTSYFE, for which the amyloid nucleation score was 0.593 ± 0.14.

With MFGNIRTFAPTITCMGDFTL, the amyloid nucleation score result is “inactive”.

In the case of MFGWRNSTLAVKAGSDTRLP, the amyloid nucleation score result was “inactive”.

Take MFKITACIFNIAYSSWFFST: the amyloid nucleation score result is “inactive”.

For MFVGP, the amyloid nucleation score entry was “inactive”.

MFVRYIAISYWYQLTWEFSV: the amyloid nucleation score result is “inactive”.

In the case of MGHDCHRDW, the amyloid nucleation score entry is “inactive”.

MGLLSTFFVEFFKT: the amyloid nucleation score result was “inactive”.

Turning to MGNFSFE, the amyloid nucleation score entry is “inactive”.

In turn, MGNYRALCLLLTWLRFLAIE returned an amyloid nucleation score of -0.015 ± 0.96.

For MGPSVMFCIDLSSWKHLIRL, the amyloid nucleation score was 0.87 ± 0.16.

With MGSGIFCDLFHGVMYCMQVR, the amyloid nucleation score entry is “inactive”.

Regarding MGYPTISFCFNVYAFSVRIV, the amyloid nucleation score amounted to 0.697 ± 0.2.

In the case of MHATIMVVDRESFHGLGWKS, the amyloid nucleation score result is “inactive”.

MIFLLTSIL: the amyloid nucleation score result is “inactive”.

With MILCLLRKAQFCY, the amyloid nucleation score entry is “inactive”.

Turning to MILFC, the amyloid nucleation score result was “inactive”.

In the case of MINWYGRTNPLCDPGLLRGI, the amyloid nucleation score entry is “inactive”.

In the case of MIVARMLVSIYKSWTIILRY, the amyloid nucleation score result was “inactive”.

With MIYAFVGYGVGTSGGVARES, the amyloid nucleation score result was “inactive”.

Substance MIYSYTNFGNIWKVCQVMRH yielded an amyloid nucleation score of 2.39 ± 0.057.

Regarding MIYYMLWTYWALPKPWNEYI, the amyloid nucleation score came out at 0.971 ± 0.16.

MKDMSFTYLLFKSHCAWVSL: the amyloid nucleation score result was “inactive”.

Turning to MKLWFNTARLDMKVSKTVYS, the amyloid nucleation score result was “inactive”.

With MKYYVR, the amyloid nucleation score result is “inactive”.

Turning to MLCDVSKVDLSRLLGAGVYD, the amyloid nucleation score entry was “inactive”.

MLELLTFTDFLGTTDITRNS: the amyloid nucleation score is -0.113 ± 0.39.

For MLFHDSVSSTWRIFELCSRC, the amyloid nucleation score entry is “inactive”.

MLGLCPFKSDWLLIYRSMWC yielded an amyloid nucleation score of 1.32 ± 0.15.

In the case of MLHASV, the amyloid nucleation score result was “inactive”.

As for MLLFHLVVQLNDLLSAPLRA, the amyloid nucleation score result was “inactive”.

Consider MLLYYEEGLCIFLLSLNPVC, for which the amyloid nucleation score entry was “inactive”.

On to MLNLRCSKCGMMPLRNRIVS, for which the amyloid nucleation score result is “inactive”.

Take MLSDSLHHSSNIVTLVTRGS: the amyloid nucleation score entry was “inactive”.

With MLSFLYRELN, the amyloid nucleation score result is “inactive”.

Take MLSWLYTSGRSRYVILLQP: the amyloid nucleation score entry was “inactive”.

Take MLVVWLFMWFIHINKRWDGA: the amyloid nucleation score result is “inactive”.

Turning to MLWEVDLNVRTSMADT, the amyloid nucleation score entry was “inactive”.

For MMNSWDPVMLYSYGNTEVVH, the amyloid nucleation score result is “inactive”.

Take MNEGLYS: the amyloid nucleation score result is “inactive”.

MNEKENMMNTQWIVCNTCAK: the amyloid nucleation score entry was “inactive”.

Consider MNFPR, for which the amyloid nucleation score result is “inactive”.

With MNGDSAMWFSISS, the amyloid nucleation score result was “inactive”.

Substance MNRMCVLLVNFCVDTD came in with an amyloid nucleation score of 1.9 ± 0.06.

Consider MNTACS, for which the amyloid nucleation score entry was “inactive”.

Turning to MNWFELFAHCLLKQFQRTLQ, the amyloid nucleation score entry was “inactive”.

Substance MNYVIIFTWN registered an amyloid nucleation score of 2.76 ± 0.071.

For the substance MPDLITGGKPAIRWYYGSDS, the amyloid nucleation score entry is “inactive”.

MPIGTSSYFFSQKICHYTSR showed an amyloid nucleation score of 1.77 ± 0.09.

MPIRCSTSLHWTTTMWMTVW: the amyloid nucleation score entry is “inactive”.

MPWGTWGAS: the amyloid nucleation score result is “inactive”.

On to MPWKSMAHFYALEFDLRCLR, for which the amyloid nucleation score is 0.619 ± 0.22.

MQLDLMCCLVSCTMNTFSSR gave an amyloid nucleation score of 1.54 ± 0.11.

MQSAVNVV: the amyloid nucleation score result was “inactive”.

As to MQVILNNVFSTFPLPAGLLR, the amyloid nucleation score entry was “inactive”.

On to MRAFIRYCIFVCMSAYRNMV, for which the amyloid nucleation score was -0.352 ± 0.73.

As to MRFSKGNYLYMREGHKGFCG, the amyloid nucleation score entry was “inactive”.

In the case of MRGWLRLSELCKGVLIVGFA, the amyloid nucleation score entry is “inactive”.

On to MRIRIPTSNNEGYPIFMSAL, for which the amyloid nucleation score result is “inactive”.

For the substance MRLYLFSRYPLARTTFMSTC, the amyloid nucleation score result was “inactive”.

For the substance MRMFCDIYLIVIDTEFMLHF, the amyloid nucleation score result is “inactive”.

Take MRSWRMRGSERFAHSLRGYL: the amyloid nucleation score result was “inactive”.

For MRVYFMWATTWLA, the amyloid nucleation score entry is “inactive”.

Turning to MRYLDLYGRARNVRIRVRRT, the amyloid nucleation score entry is “inactive”.

For the substance MSCRARRTNLF, the amyloid nucleation score result is “inactive”.

For MSCYN, the amyloid nucleation score result was “inactive”.

As for MSFWY, the amyloid nucleation score result was “inactive”.

Regarding MSGNA, the amyloid nucleation score result was “inactive”.

As for MSHDTFDV, the amyloid nucleation score result is “inactive”.

For MSLGFALVSILVCF, the amyloid nucleation score entry is “inactive”.
